Assay results taken from article PMC3751582.

Molecular target: Drosophila melanogaster cystathionine β-synthase (Drosophila melanogaster)
Experiment: native gel or EMSA

stoichiometry N: 2
Substance: Drosophila melanogaster cystathionine β-synthase (enzyme)
